# Assay results: PMC9482650, “Quantitative fragmentomics allow affinity mapping of interactomes” (Nature Communications, 2022)
# Residue numbers refer to the chain shown, from its start.
# T1: GRIP1_7, Q9Y3R0
# T1 sequence (Q9Y3R0 999-1096, limits assumed, looked up): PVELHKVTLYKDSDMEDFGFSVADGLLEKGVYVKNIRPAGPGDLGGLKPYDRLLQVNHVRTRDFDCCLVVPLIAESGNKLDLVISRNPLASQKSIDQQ
# T2: TJP3_3, O95049
# T2 sequence (O95049 375-456, limits assumed, looked up): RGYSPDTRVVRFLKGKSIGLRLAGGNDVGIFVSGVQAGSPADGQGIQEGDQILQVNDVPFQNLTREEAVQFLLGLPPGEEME
# T3: DLG3_3, Q92796
# T3 sequence (Q92796 374-475, limits assumed, looked up): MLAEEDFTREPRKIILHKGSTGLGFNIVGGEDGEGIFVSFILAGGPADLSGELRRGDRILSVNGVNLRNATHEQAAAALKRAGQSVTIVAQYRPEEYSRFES
# T4: LIN7B, Q9HAP6
# T4 sequence (Q9HAP6 88-185, limits assumed, looked up): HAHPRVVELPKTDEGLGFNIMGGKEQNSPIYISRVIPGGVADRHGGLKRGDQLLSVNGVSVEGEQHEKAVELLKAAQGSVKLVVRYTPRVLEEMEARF
# T5: GRIP1_2, Q9Y3R0
# T5 sequence (Q9Y3R0 145-248, limits assumed, looked up): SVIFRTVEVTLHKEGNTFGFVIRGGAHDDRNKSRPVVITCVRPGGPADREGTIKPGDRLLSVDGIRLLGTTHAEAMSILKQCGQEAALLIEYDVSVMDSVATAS
# T6: SNTG2, Q9NY99
# T6 sequence (Q9NY99 68-166, limits assumed, looked up): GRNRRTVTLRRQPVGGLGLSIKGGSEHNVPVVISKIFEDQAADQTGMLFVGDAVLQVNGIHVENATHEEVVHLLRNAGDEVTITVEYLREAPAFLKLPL
# T7: LIN7C, Q9NUP9
# T7 sequence (Q9NUP9 88-185, limits assumed, looked up): T4 sequence (Q9HAP6 88-185, limits assumed, looked up) with A2S, D13E, V35I, V40I, Q65H, S79K, R89K, A96S
# T8: APBA1_1, Q02410
# T8 sequence (Q02410 651-752, limits assumed, looked up): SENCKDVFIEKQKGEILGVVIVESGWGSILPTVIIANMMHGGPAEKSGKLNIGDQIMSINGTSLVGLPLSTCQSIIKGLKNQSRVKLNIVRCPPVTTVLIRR
# B1: DFNB31_int, Q9P202 (peptide)
# chain: VSVDDVRSTSQGLSSY
# Key:
# Assay in all cases: holdup assay
# Design in all cases: key: below the threshold = too weak to quantify, mostly under pKd 3.1 to 4
# Settings in all cases: plain residues with an end cap or a label only (N-terminal biotin on a linker: gsgsgs; C-terminal amide)
# [1] = molecular target: T1, GRIP1_7, Q9Y3R0
# [2] = molecular target: SCRIB_1, Q14160
# [3] = molecular target: MAGI2_3, Q86UL8
# [4] = molecular target: SCRIB_3, Q14160
# [5] = molecular target: PTPN3, P26045
# [6] = molecular target: Inadl_1, Q8NI35
# [7] = molecular target: T2, TJP3_3, O95049
# [8] = molecular target: T3, DLG3_3, Q92796
# [9] = molecular target: MAGI3_2, Q5TCQ9
# [10] = molecular target: ARHGEF12, Q9NZN5-2
# [11] = molecular target: MAGI2_5, Q86UL8
# [12] = molecular target: T4, LIN7B, Q9HAP6
# [13] = molecular target: SCRIB_2, Q14160
# [14] = molecular target: HTRA2, O43464
# [15] = molecular target: TJP1_2, Q07157
# [16] = molecular target: NHERF2_2, Q15599
# [17] = molecular target: T5, GRIP1_2, Q9Y3R0
# [18] = molecular target: LNX1_1, Q8TBB1
# [19] = molecular target: SNX27, Q96L92
# [20] = molecular target: CASK, O14936
# [21] = molecular target: AHNAK1, Q09666
# [22] = molecular target: PARD3_3, Q8TEW0
# [23] = molecular target: Inadl_8, Q8NI35
# [24] = molecular target: T6, SNTG2, Q9NY99
# [25] = molecular target: MAST2, Q6P0Q8
# [26] = molecular target: PDLIM1, O00151
# [27] = molecular target: GORASP1, Q9BQQ3
# [28] = molecular target: T7, LIN7C, Q9NUP9
# [29] = molecular target: T8, APBA1_1, Q02410
# [30] = molecular target: NHERF4_1, Q86UT5-2
# [31] = molecular target: MAST1, Q9Y2H9
# Sequence of MAST1, Q9Y2H9 (Q9Y2H9 962-1065): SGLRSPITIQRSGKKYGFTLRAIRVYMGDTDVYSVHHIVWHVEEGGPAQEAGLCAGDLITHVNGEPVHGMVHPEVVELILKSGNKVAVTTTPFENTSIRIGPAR
# Sequence of CASK, O14936 (O14936 487-570): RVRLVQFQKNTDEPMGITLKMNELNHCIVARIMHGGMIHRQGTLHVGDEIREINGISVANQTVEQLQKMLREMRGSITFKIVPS
# Sequence of NHERF2_2, Q15599 (Q15599 142-238): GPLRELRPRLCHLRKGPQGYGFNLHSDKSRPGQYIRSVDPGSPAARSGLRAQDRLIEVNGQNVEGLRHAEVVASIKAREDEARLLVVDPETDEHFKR
# Sequence of MAGI3_2, Q5TCQ9 (Q5TCQ9 398-503): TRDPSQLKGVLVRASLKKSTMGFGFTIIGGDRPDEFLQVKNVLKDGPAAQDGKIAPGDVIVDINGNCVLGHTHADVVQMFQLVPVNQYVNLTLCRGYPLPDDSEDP
# Sequence of Inadl_8, Q8NI35 (Q8NI35 1425-1530): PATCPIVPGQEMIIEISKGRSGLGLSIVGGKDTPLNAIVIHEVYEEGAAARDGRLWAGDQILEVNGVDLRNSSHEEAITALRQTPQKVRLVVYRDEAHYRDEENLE
# Sequence of HTRA2, O43464 (O43464 355-458): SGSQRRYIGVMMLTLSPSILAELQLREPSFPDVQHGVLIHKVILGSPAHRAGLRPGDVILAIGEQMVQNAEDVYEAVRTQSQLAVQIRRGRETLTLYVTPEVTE
# Sequence of PARD3_3, Q8TEW0 (Q8TEW0 582-685): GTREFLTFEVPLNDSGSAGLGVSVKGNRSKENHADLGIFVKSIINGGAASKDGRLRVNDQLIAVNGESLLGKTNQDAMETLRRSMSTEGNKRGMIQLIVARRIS
# Sequence of MAGI2_5, Q86UL8 (Q86UL8 915-1017): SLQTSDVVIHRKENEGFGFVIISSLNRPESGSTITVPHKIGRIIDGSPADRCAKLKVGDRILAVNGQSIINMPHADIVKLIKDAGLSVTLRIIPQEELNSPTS
# Sequence of TJP1_2, Q07157 (Q07157 181-274): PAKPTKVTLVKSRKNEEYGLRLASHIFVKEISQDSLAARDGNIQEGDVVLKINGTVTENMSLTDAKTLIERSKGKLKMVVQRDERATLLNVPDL
# Sequence of PDLIM1, O00151 (O00151 1-87): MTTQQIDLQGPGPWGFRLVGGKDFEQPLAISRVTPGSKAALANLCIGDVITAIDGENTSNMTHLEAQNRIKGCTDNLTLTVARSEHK
# Sequence of SCRIB_3, Q14160 (Q14160 999-1103): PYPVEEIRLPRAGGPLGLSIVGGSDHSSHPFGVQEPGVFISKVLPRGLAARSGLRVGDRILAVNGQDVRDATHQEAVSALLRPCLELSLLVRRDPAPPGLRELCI
# Sequence of MAST2, Q6P0Q8 (Q6P0Q8 1099-1202): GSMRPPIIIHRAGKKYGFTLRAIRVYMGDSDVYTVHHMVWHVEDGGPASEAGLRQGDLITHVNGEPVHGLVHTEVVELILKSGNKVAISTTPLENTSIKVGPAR
# Sequence of PTPN3, P26045 (P26045 505-587): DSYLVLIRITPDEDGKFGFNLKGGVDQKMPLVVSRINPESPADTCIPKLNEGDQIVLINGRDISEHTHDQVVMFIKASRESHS
# Sequence of MAGI2_3, Q86UL8 (Q86UL8 600-682): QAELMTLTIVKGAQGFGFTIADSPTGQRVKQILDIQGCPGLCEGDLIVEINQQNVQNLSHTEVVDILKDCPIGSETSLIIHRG
# Sequence of LNX1_1, Q8TBB1 (Q8TBB1 261-371): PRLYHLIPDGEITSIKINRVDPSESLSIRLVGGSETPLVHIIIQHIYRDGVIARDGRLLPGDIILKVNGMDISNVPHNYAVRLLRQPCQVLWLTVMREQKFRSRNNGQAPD
# Sequence of ARHGEF12, Q9NZN5-2 (Q9NZN5 other isoform, or with tags, fused parts or gaps): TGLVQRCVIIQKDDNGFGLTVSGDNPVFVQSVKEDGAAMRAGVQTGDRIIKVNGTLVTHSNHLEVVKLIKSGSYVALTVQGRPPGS
# Sequence of Inadl_1, Q8NI35 (Q8NI35 113-229): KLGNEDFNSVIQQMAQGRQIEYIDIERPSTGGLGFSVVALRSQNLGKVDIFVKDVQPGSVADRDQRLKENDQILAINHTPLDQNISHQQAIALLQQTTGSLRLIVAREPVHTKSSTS
# Sequence of GORASP1, Q9BQQ3 (Q9BQQ3 1-208): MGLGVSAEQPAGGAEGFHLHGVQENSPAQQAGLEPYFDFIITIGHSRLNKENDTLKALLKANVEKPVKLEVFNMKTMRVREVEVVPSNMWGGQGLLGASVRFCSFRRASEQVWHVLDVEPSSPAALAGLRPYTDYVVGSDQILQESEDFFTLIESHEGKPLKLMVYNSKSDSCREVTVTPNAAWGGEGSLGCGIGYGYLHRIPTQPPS
# Sequence of NHERF4_1, Q86UT5-2 (Q86UT5 other isoform, or with tags, fused parts or gaps): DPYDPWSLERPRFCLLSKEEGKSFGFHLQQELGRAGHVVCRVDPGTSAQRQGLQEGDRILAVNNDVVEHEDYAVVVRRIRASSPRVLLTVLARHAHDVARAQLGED
# Sequence of AHNAK1, Q09666 (Q09666 4-100): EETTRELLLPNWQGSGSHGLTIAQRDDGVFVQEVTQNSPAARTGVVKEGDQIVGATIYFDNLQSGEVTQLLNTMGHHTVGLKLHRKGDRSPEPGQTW
# Sequence of SCRIB_1, Q14160 (Q14160 718-814): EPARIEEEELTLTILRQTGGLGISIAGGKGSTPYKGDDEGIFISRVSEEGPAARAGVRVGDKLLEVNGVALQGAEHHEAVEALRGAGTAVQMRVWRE
# Sequence of SCRIB_2, Q14160 (Q14160 857-960): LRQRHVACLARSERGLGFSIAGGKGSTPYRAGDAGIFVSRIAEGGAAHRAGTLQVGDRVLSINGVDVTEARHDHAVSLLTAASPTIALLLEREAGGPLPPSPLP
binder,measurement,setting,value
B1,pKd,[1],below the threshold
same,pKd,[2],below the threshold
same,pKd,[3],below the threshold
same,pKd,[4],below the threshold
same,pKd,[5],3.68
same,pKd,[6],below the threshold
same,pKd,[7],below the threshold
same,pKd,[8],below the threshold
same,pKd,[9],below the threshold
same,pKd,[10],below the threshold
same,pKd,[11],below the threshold
same,pKd,[12],3.48
same,pKd,[13],below the threshold
same,pKd,[14],below the threshold
same,pKd,[15],below the threshold
same,pKd,[16],below the threshold
same,pKd,[17],below the threshold
same,pKd,[18],below the threshold
same,pKd,[19],below the threshold
same,pKd,[20],below the threshold
same,pKd,[21],below the threshold
same,pKd,[22],below the threshold
same,pKd,[23],below the threshold
same,pKd,[24],below the threshold
same,pKd,[25],below the threshold
same,pKd,[26],below the threshold
same,pKd,[27],below the threshold
same,pKd,[28],4.12
same,pKd,[29],below the threshold
same,pKd,[30],below the threshold
same,pKd,[31],below the threshold
